Experimental findings from publication PMC7157757, “A Novel Combined Scientific and Artistic Approach for the Advanced Characterization of Interactomes: The Akirin/Subolesin Model” (Vaccines, 2020) are described below.

This series concerns the molecule itself. The series is described as follows: SEC; HiPrep 16/60 Sephacryl S-100 HR; proteins incubated in PBS overnight at 4 °C before dilution in column buffer (50 mM sodium phosphate, 150 mM sodium chloride, pH 7.2); 0.8 mL/min; monomer and dimer. In general terms: SEC sorts molecules by how far they enter the pores of the column.

B1: Recombinant I. scapularis AKR/SUB (natural protein)
chain: not shown
notes: Akirin/Subolesin (AKR/SUB), Ixodes scapularis, Q4VRW2; also called Subolesin; tick SUB; source: Escherichia coli, Champion pET101 Directional TOPO Expression kit, as previously described [34,35]
Take B1: the “stoichiometry N” value came out at 2.

What is called stoichiometry N is the number of molecules, sites or subunits per partner or assembly.
